These results are taken from US5650283.

The subject of series [1] is LexA(1-202)-AHRNΔ166 chimera (synthetic construct). Description: cell_activity. To be noted: average lacZ induction over background, agonist dependent.
Series [2] has as its system human AhR + ARNT expressed in yeast (Homo sapiens). Description: cell_activity. To be noted: lacZ induction over background by betaNF or alphaNF; none with AHR or ARNT only.

“eight LexA operator lacZ reporter (pSH18-34)” yielded an activity in series [1] of 90 fold.

As to DRE2-DRE3 lacZ reporter (pDRE23-Z), the activity in series [2] came to 12 fold.
